Data on six molecules can be found in patent US20240082302A1 (University of Pennsylvania, published 2024).

The chains are these.
T1: human TIM-3 expressed on cells (NB4-TIM3 cells; human AML leukemic stem cells) (human, UniProt Q8TDQ0 22-301)
T1 construct: whole, on cells; also called NB4-expressing human TIM-3
T1 sequence (looked up): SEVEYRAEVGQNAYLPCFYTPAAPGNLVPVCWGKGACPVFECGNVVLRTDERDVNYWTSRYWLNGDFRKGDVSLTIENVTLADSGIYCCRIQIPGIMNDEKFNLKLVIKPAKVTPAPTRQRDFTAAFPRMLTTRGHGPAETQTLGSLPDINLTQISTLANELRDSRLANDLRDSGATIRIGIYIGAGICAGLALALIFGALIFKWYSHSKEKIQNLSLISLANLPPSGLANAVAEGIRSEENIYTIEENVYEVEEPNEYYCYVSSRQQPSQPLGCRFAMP

B1: Anti-TIM3 VHH12 (VHH)
VHH: QVQLQESGGGLVQTGDSLRLSCVVSGGTFRNYVMGWFRQAPGKEREFVSAMNWSGGITVYADSVKGRFTISRDNAKNAVYLQMGSLKPGDTAVYYCAAAAIDGGTVRSINSYAYWGQGTQVTVSS
notes: Llama VHH isolated as a phage display clone (pCOMB3X)
B2: Anti-TIM3 VHH38 (VHH)
VHH: QVQLQESGGGLVQAGDSLRLSCAVGRTFSASTLGWFRQSPGKEREFVAAISWWRGEAYYGDSVKGRFTISRDNTKTTINLQMNSLKPEDTAVYYCARAQFDGATRADDYDNWGQGTQVTVSS
notes: as for B1
B3: Anti-TIM3 VHH13 (VHH)
VHH: QVQLQESGGGLVQAGGSLSLSCAASGRTFKNYLMAWFRQTPGKEREFVAAITQLGTRSLNEDFVKGRFTISRDNAKNTVYLQMNDLKTDDTGVYSCAASLQSGGSLRYAKYDYWGQGTQVTVSS
notes: as for B1
B4: Anti-TIM3 VHH33 (VHH)
VHH: QVQLQESGGGLVQPGGSLRLSCAVSGLTPDAYVMGWFRQAPGKEREGVSCISPSGGTTSYPDSVKGRFTISRDNAKNTVYLQMNSLKPEDTGVYYCAAVAGRWCDYGMNYYGKGTQVTVSS
notes: Llama VHH tested as a phage clone (pCOMB3X phage display) by flow cytometry on cells
B5: Anti-TIM3 VHH32 (VHH)
VHH: QVQLQESGGGLVQAGGSLNLSCAASGSSFRLYTVGWHRQAPGKQRELVAWISGAGSTNYHSSVKGRFTISRDNAKNTALLQMNNLAPEDTAVYYCNLLNYWGQGTQVTVSS
notes: as for B4
B6: Anti-TIM3 VHH30 (VHH)
VHH: QVQLQESGGGLVQAGGSLRLSCAASGFTFGSYVMGWFRQAPGKEREFVASISTSGGITSYADSVKGRFTVSRDNAKNTVYLQMNSLKPEDTAVYYCARDLTYYRTGGRLPDNANGYAYWGQGTQVTVSS
notes: as for B4

The target of one experiment is T1, human TIM-3 expressed on cells …. Kind of experiment: phage display panning/screening on TIM-3 expressing NB4 cells. From the text: To generate VHHs targeting human TIM-3, human recombinant extracellular TIM-3 purified from HEK293 cells was used to immunize llamas, and the resulting VHH phage display libraries were constructed. The phage VHH clones targeting TIM-3 were screened by panning through TIM-3 expressing NB4 cells. The positive clones specifically binding to TIM-3 expressing NB4 cells were isolated. DNA encoding each of the VHHs, including VHH30, 32, and 33, were sequenced. The sequences were consistent with the predicted sequences for VHHs. Each of the VHHs, with both nucleotide and amino acid sequences, are listed below.
Turning to B1, the binding result is listed as “binds”.
Same read-out and setting: for B2 the value was “binds”.
As to B3, the binding result is given as “binds”.

The target is the same in a further experiment. Description: flow cytometry, VHH phage clones on NB4 cells expressing human TIM-3.
B4: the binding result is “binds”.
Consider B5, for which the binding result is given as “binds”.
On the same count and under the same terms, as for B6, the entry is “binds”.
